Source: article PMC9342608, “The OsEIL1‐OsERF115‐target gene regulatory module controls grain size and weight in rice”

T1: GST-OsEIL1N (Oryza sativa, UniProt Q10M41 1-350)
T1 sequence: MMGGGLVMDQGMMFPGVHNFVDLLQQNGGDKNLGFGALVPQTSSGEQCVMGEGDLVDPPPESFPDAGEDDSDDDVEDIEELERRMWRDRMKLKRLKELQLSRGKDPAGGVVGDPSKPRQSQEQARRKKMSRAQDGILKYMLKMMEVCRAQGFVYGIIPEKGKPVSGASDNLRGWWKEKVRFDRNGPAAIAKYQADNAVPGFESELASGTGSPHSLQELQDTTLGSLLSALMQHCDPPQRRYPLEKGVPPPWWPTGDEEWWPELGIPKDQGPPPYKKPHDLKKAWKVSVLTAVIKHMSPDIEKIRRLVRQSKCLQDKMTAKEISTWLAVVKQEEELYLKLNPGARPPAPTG

B1: OsERF115 probe 2 (EBS2) (dsDNA)
DNA 1: ATATGGCTAGAAACATAAATGTAGCTACTTTCTCTGTGCACGA
DNA 2: TCGTGCACAGAGAAAGTAGCTACATTTATGTTTCTAGCCATAT
B2: OsERF115 probe 1 (EBS1) (dsDNA)
DNA 1: CATAACTTTTCAGTCACATCATCTCCAATTTCAACCAAAATCCAAAC
DNA 2: GTTTGGATTTTGGTTGAAATTGGAGATGATGTGACTGAAAAGTTATG
B3: OsERF115 probe 3 (EBS3) (dsDNA)
DNA 1: GATAGAACTACGTATGCACGGACCGGCTCATCACTAGAGGAG
DNA 2: CTCCTCTAGTGATGAGCCGGTCCGTGCATACGTAGTTCTATC

Molecular target: T1, GST-OsEIL1N
Test: EMSA; EMSA/Gel-Shift Binding Buffer (Beyotime GS005), 30 min at room temperature, 6% native PAGE; salt and pH not stated
Conditions: protein: recombinant; tags: GST (N-terminal, pGEX-4T); label: 5' biotin on strand 1; blunt

Binding result, binds:
B1
B2
B3
